In patent US20230250154A1 (CYTONICS, published 2023):
Where two headings read alike, the source gives them in different places.

T1: Cathepsin G (UniProt P08311 21-244)
T1 sequence (looked up): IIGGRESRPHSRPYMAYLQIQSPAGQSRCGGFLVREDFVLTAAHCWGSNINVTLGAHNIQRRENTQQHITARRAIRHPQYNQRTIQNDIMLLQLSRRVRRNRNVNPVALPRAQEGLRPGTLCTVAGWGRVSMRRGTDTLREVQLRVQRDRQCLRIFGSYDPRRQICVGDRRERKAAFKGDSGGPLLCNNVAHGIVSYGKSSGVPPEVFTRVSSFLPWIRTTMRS

T2: MMP2 (human, UniProt P08253 110-660, limits assumed)
T2 sequence (looked up): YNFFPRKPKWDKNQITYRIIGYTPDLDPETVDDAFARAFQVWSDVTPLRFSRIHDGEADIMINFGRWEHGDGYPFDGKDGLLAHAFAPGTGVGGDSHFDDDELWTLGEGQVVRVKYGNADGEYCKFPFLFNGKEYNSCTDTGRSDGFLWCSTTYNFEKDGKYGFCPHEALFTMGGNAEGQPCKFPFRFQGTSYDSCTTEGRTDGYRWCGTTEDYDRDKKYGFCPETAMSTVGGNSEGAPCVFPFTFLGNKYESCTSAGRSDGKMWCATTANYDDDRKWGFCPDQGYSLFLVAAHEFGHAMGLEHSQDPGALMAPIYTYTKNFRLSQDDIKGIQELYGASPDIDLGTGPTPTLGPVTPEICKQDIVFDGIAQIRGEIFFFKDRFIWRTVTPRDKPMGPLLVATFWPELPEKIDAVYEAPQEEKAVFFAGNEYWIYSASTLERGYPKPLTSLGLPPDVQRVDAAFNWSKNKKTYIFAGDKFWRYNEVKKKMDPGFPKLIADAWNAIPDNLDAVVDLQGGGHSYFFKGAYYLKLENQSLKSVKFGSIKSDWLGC

T3: ADAMTS5 (human, UniProt Q9UNA0 262-622, limits assumed)
T3 sequence (looked up): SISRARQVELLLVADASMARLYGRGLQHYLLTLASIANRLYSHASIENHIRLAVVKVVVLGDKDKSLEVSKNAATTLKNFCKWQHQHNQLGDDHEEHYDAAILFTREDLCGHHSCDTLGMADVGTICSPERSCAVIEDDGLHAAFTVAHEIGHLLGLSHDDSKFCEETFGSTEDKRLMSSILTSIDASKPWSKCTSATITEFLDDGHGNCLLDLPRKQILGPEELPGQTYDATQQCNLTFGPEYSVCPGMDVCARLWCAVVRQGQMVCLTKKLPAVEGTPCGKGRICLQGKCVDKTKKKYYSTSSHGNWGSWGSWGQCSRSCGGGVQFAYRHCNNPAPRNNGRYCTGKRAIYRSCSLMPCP

T4: MMP1 (human, UniProt P03956 100-469, limits assumed)
T4 sequence (looked up): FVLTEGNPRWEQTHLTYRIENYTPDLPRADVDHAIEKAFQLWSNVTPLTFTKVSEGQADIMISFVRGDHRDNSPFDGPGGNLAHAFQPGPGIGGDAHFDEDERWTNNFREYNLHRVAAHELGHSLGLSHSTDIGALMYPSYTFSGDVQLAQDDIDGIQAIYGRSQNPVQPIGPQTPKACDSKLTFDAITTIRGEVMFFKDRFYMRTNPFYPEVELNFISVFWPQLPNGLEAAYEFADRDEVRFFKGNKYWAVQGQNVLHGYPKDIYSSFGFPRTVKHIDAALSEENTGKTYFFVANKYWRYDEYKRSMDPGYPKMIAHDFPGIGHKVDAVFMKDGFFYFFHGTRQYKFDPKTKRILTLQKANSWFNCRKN

T5: MMP7 (UniProt P09237 95-267, limits assumed)
T5 sequence (looked up): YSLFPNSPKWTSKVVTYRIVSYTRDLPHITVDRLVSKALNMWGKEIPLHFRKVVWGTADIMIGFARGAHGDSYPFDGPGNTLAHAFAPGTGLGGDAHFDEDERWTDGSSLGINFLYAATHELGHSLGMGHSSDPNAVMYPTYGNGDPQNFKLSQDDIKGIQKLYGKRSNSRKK

B1: Variant A2M, bait region SEQ ID NO 124 (other)
chain: SVSGKPQYMVLVPSLLHTETTEKGCVLLSYLNETVTVSASLESVRGNRSLFTDLEAENDVLHCVAFAVPKSSSNEEVMFLTVQVKGPTQEFKKRTTVMVKNEDSLVFVQTDKSIYKPGQTVKFRVVSMDENFHPLNELIPLVYIQDPKGNRIAQWQSFQLEGGLKQFSFPLSSEPFQGSYKVVVQKKSGGRTEHPFTVEEFVLPKFEVQVTVPKIITILEEEMNVSVCGLYTYGKPVPGHVTVSICRKYSDASDCHGEDSQAFCEKFSGQLNSHGCFYQQVKTKVFQLKRKEYEMKLHTEAQIQEEGTVVELTGRQSSEITRTITKLSFVKVDSHFRQGIPFFGQVRLVDGKGVPIPNKVIFIRGNEANYYSNATTDEHGLVQFSINTTNVMGTSLTVRVNYKDRSPCYGYQWVSEEHEEAHHTAYLVFSPSKSFVHLEPMSHELPCGHTQTVQAHYILNGGTLLGLKKLSFYYLIMAKGGIVRTGTHGLLVKQEDMKGHFSISIPVKSDIAPVARLLIYAVLPTGDVIGDSAKYDVENCLANKVDLSFSPSQSLPASHAHLRVTAAPQSVCALRAVDQSVLLMKPDAELSASSVYNLLPEKDLTGFPGPLNDQDDEDCINRHNVYINGITYTPVSSTNEKDMYSFLEDMGLKAFTNSKIRKPKMCPQLEQYEMHGPKEEEGLGSSELEGRGSEAIPMSIPTIPENFFGVVEEPHTKLRKYFPETWIWDLVVVNSAGVAEVGVTVPDTITEWKAGAFCLSEDAGLGISSTASLRAFQPFFVELTMPYSVIRGEAFTLKATVLNYLPKCIRVSVQLEASPAFLAVPVEKEQAPHCICANGRQTVSWAVTPKSLGNVNFTVSAEALESQELCGTEVPSVPEHGRKDTVIKPLLVEPEGLEKETTFNSLLCPSGGEVSEELSLKLPPNVVEESARASVSVLGDILGSAMQNTQNLLQMPYGCGEQNMVLFAPNIYVLDYLNETQQLTPEIKSKAIGYLNTGYQRQLNYKHYDGSYSTFGERYGRNQGNTWLTAFVLKTFAQARAYIFIDEAHITQALIWLSQRQKDNGCFRSSGSLLNNAIKGGVEDEVTLSAYITIALLEIPLTVTHPVVRNALFCLESAWKTAQEGDHGSHVYTKALLAYAFALAGNQDKRKEVLKSLNEEAVKKDNSVHWERPQKPKAPVGHFYEPQAPSAEVEMTSYVLLAYLTAQPAPTSEDLTSATNIVKWITKQQNAQGGFSSTQDTVVALHALSKYGAATFTRTGKAAQVTIQSSGTFSSKFQVDNNNRLLLQQVSLPELPGEYSMKVTGEGCVYLQTSLKYNILPEKEEFPFALGVQTLPQTCDEPKAHTSFQISLSVSYTGSRSASNMAIVDVKMVSGFIPLKPTVKMLERSNHVSRTEVSSNHVLIYLDKVSNQTLSLFFTVLQDVPVRDLKPAIVKVYDYYETDEFAIAEYNAPCSKDLGNADYKDDDDKGASHHHHHH
B2: Variant A2M, bait region SEQ ID NO 29 (other)
chain: SVSGKPQYMVLVPSLLHTETTEKGCVLLSYLNETVTVSASLESVRGNRSLFTDLEAENDVLHCVAFAVPKSSSNEEVMFLTVQVKGPTQEFKKRTTVMVKNEDSLVFVQTDKSIYKPGQTVKFRVVSMDENFHPLNELIPLVYIQDPKGNRIAQWQSFQLEGGLKQFSFPLSSEPFQGSYKVVVQKKSGGRTEHPFTVEEFVLPKFEVQVTVPKIITILEEEMNVSVCGLYTYGKPVPGHVTVSICRKYSDASDCHGEDSQAFCEKFSGQLNSHGCFYQQVKTKVFQLKRKEYEMKLHTEAQIQEEGTVVELTGRQSSEITRTITKLSFVKVDSHFRQGIPFFGQVRLVDGKGVPIPNKVIFIRGNEANYYSNATTDEHGLVQFSINTTNVMGTSLTVRVNYKDRSPCYGYQWVSEEHEEAHHTAYLVFSPSKSFVHLEPMSHELPCGHTQTVQAHYILNGGTLLGLKKLSFYYLIMAKGGIVRTGTHGLLVKQEDMKGHFSISIPVKSDIAPVARLLIYAVLPTGDVIGDSAKYDVENCLANKVDLSFSPSQSLPASHAHLRVTAAPQSVCALRAVDQSVLLMKPDAELSASSVYNLLPEKDLTGFPGPLNDQDDEDCINRHNVYINGITYTPVSSTNEKDMYSFLEDMGLKAFTNSKIRKPKMCPQLEQPEGEGEGPRYLTAIPENFFGVSEDLVVQISELEGRGSVEEPHTKLRKYFPETWIWDLVVVNSAGVAEVGVTVPDTITEWKAGAFCLSEDAGLGISSTASLRAFQPFFVELTMPYSVIRGEAFTLKATVLNYLPKCIRVSVQLEASPAFLAVPVEKEQAPHCICANGRQTVSWAVTPKSLGNVNFTVSAEALESQELCGTEVPSVPEHGRKDTVIKPLLVEPEGLEKETTFNSLLCPSGGEVSEELSLKLPPNVVEESARASVSVLGDILGSAMQNTQNLLQMPYGCGEQNMVLFAPNIYVLDYLNETQQLTPEIKSKAIGYLNTGYQRQLNYKHYDGSYSTFGERYGRNQGNTWLTAFVLKTFAQARAYIFIDEAHITQALIWLSQRQKDNGCFRSSGSLLNNAIKGGVEDEVTLSAYITIALLEIPLTVTHPVVRNALFCLESAWKTAQEGDHGSHVYTKALLAYAFALAGNQDKRKEVLKSLNEEAVKKDNSVHWERPQKPKAPVGHFYEPQAPSAEVEMTSYVLLAYLTAQPAPTSEDLTSATNIVKWITKQQNAQGGFSSTQDTVVALHALSKYGAATFTRTGKAAQVTIQSSGTFSSKFQVDNNNRLLLQQVSLPELPGEYSMKVTGEGCVYLQTSLKYNILPEKEEFPFALGVQTLPQTCDEPKAHTSFQISLSVSYTGSRSASNMAIVDVKMVSGFIPLKPTVKMLERSNHVSRTEVSSNHVLIYLDKVSNQTLSLFFTVLQDVPVRDLKPAIVKVYDYYETDEFAIAEYNAPCSKDLGNADYKDDDDKGASHHHHHH

How the values were obtained:
Assay in all cases: cell-based or functional assay
Elastase [1] = biological target: Elastase
Cathepsin G [2] = biological target: T1, Cathepsin G
MMP8 = MMP8 (human, UniProt P22894 101-467, limits assumed)
MMP3 = MMP3 (human, UniProt P08254 100-477, limits assumed)
MMP13 = MMP13 (human, UniProt P45452 104-471, limits assumed)
Elastase [3] = biological target: Elastase; remark: listed apart in the source
MMP2 = biological target: T2, MMP2
Cathepsin G [4] = biological target: T1, Cathepsin G; remark: listed apart in the source
ADAMTS5 = biological target: T3, ADAMTS5
MMP1 = biological target: T4, MMP1
MMP7 = biological target: T5, MMP7
MMP9 = MMP9 (human, UniProt P14780 107-707, limits assumed)
Sequence of MMP9 (P14780 107-707 limits assumed): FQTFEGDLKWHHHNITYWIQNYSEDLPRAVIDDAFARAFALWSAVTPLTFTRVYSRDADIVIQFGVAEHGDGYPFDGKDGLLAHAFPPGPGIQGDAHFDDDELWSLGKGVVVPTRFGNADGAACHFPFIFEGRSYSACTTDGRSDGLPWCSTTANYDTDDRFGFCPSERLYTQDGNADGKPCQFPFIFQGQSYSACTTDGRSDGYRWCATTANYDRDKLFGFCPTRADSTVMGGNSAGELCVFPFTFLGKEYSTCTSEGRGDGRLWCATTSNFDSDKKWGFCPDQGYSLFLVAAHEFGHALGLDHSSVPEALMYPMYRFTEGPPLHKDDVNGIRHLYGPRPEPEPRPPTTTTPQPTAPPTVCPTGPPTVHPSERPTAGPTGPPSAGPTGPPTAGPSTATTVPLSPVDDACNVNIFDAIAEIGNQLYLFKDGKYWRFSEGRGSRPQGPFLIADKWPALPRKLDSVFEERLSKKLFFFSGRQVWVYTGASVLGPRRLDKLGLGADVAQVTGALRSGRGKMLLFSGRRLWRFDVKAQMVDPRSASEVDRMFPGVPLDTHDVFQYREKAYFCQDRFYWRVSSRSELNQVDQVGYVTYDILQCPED

Sequence of MMP8 (P22894 101-467 limits assumed): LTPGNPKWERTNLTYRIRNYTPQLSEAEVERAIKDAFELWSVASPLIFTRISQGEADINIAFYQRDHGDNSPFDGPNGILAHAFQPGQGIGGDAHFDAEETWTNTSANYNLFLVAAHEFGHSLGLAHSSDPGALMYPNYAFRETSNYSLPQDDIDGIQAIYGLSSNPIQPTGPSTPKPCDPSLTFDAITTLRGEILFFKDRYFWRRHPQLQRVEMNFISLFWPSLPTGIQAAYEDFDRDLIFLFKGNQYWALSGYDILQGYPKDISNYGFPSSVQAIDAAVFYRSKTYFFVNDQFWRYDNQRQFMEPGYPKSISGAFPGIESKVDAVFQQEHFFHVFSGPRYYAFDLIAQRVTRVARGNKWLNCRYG
Sequence of MMP3 (P08254 100-477 limits assumed): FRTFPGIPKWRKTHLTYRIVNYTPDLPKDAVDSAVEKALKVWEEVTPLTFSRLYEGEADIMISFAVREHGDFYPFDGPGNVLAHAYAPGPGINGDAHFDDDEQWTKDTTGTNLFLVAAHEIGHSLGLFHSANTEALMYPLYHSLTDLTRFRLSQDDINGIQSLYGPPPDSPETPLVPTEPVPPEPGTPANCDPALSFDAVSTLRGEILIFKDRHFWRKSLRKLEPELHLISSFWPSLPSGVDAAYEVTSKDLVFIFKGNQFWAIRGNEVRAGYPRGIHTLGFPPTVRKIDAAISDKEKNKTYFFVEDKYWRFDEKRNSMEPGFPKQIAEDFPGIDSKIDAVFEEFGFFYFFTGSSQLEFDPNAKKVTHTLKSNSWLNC

| Binder | Protease Inhibition (% of WT) (Elastase [1]) | Protease Inhibition (% of WT) (Cathepsin G [2]) | Protease Inhibition (% of WT) (MMP8) | Protease Inhibition (% of WT) (MMP3) | Protease Inhibition (% of WT) (MMP13) | Protease Inhibition (% of WT) (Elastase [3]) | Protease Inhibition (% of WT) (MMP2) | Protease Inhibition (% of WT) (Cathepsin G [4]) | Protease Inhibition (% of WT) (ADAMTS5) | Protease Inhibition (% of WT) (MMP1) | Protease Inhibition (% of WT) (MMP7) | Protease Inhibition (% of WT) (MMP9) |
| --- | --- | --- | --- | --- | --- | --- | --- | --- | --- | --- | --- | --- |
| B1 | 75 % of WT | 250 % of WT | – | – | – | – | – | – | – | – | – | – |
| B2 | – | – | 29 % of WT | 101 % of WT | 70 % of WT | 98 % of WT | 16 % of WT | 84 % of WT | 85 % of WT | 87 % of WT | 104 % of WT | 5 % of WT |
